Results on 1 substance are retold here after publication PMC10922771.

Common to all, as to experiment: FXase
Test [1] addresses activated ET9 (ET9a; FIX-403 with p.Arg384Leu) (human) (UniProt P00740).
Test [2] concerns the target activated FIX-403 (FIXa-403) (human) (UniProt P00740).
The target in test [3] is activated human factor IX (hFIXa) (human) (UniProt P00740).
Test [4] has as its target activated human factor IX Padua (hFIXa-Padua, p.Arg384Leu) (human) (UniProt P00740).

What is called Kd is the concentration at which binding is half-saturated. A low value points to a tighter complex. As to “activated factor VIII (FVIIIa), from Advate, recombinant full-length FVIII activated with thrombin (complex)”, the Kd was 0.26 nM in test [1], 2.08 nM in test [2], 7.8 nM in test [3] and 1.08 nM in test [4].
